Reference: US20150024459A1

Assays:
[1] = target: IGF-1R on human cancer cell lines (human) (UniProt P08069); assay: cell-based or functional assay
[2] = target: IGF-1R on human cancer cell lines (human) (UniProt P08069); assay: 125I-IGF-1 binding to MCF-7L cells; antibody at 1000 ng/mL
[3] = target: IGF-1R on human cancer cell lines (human) (UniProt P08069); assay: 125I-IGF-1 binding to MCF-7L cells; antibody at 100 ng/mL
[4] = target: IGF-1R and EGP-1 together on MCF-7, DU145 or ME-180 cells (human) (UniProt P08069); assay: flow cytometry (FACScan), DU145 cells; control
[5] = target: IGF-1R and EGP-1 together on MCF-7, DU145 or ME-180 cells (human) (UniProt P08069); assay: flow cytometry (FACScan), MCF-7 cells; control
[6] = target: IGF-1R and EGP-1 together on MCF-7, DU145 or ME-180 cells (human) (UniProt P08069); assay: flow cytometry (FACScan), ME-180 cells; control

Row | Substance | maximum growth inhibition, 786-O cells, serum-free with IGF-1 100 ng/mL, MTS, antibody 8 nM [1] [%] | maximum growth inhibition, ACHN cells, serum-free with IGF-1 100 ng/mL, MTS, antibody 200 nM [1] [%] | maximum growth inhibition, Caki-2 cells, serum-free with IGF-1 100 ng/mL, MTS, antibody 8 nM [1] [%] | % binding of 125I-IGF-1 in the presence of the antibody [2] [%] | % binding of 125I-IGF-1 in the presence of the antibody [3] [%] | % Positive [4] [%] | MFI [4] | % Positive [5] [%] | MFI [5] | % Positive [6] [%] | MFI [6]
1 | MAB391 (antibody) | 34 | 48 | 50 | 38 | 54 | – | – | – | – | – | –
2 | human IgG (antibody) | – | – | – | – | – | 1.44 | 2.21 | 2.34 | 1.84 | 1.37 | 1.8
